The text below walks through data of patent publication US20240060082A1.

In the assay the target is soybean's RPS5 homolog (soybean). Nature of the assay: cell-based or functional assay.

Where only a bound is given, the exact number is not on record here.

“PBS1-R17 (modified Arabidopsis thaliana PBS1 with cleavage site R17, QVFEFL) (from UniProt Q9FE20 1-456)” returned a resistance to the three soy rust strains in transgenic soybean, compared to control event G40 of over 85 % efficacy.
For “PBS1-R19 (modified Arabidopsis thaliana PBS1 with cleavage site R19, QMIFLR) (from UniProt Q9FE20 1-456)” the value was over 85 % efficacy; for “PBS1-R20 (modified Arabidopsis thaliana PBS1 with cleavage site R20, IFLWSA) (from UniProt Q9FE20 1-456)”, over 85 % efficacy.
